molecular target: T1, rCRISPA (rCRISP1) (Rattus norvegicus, UniProt P12020); experiment: Protease activity screen: cleavage of substrate peptides by native rCRISPA (+DANA protocol), measured by fluorescence; assay type: biochemical; conditions: 5 μM substrate peptide, 1 μg enzyme, 100 mM NaCl, 25 mM Tris-Cl, pH 7.5; fluorescence at ten minute intervals for 130 minutes; FIG. 13
T1 construct: Native rCRISPA (rCRISP1) protein, purified with DANA present; from tissue; host or cells: rat epididymis
T1 sequence (P12020 20-246): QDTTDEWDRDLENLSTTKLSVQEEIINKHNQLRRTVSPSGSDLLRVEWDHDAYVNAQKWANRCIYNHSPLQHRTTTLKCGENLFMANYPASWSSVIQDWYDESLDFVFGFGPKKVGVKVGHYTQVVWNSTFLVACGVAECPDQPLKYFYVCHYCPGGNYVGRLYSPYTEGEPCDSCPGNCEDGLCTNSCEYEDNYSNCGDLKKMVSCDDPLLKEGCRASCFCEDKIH
Protocol: FIG. 13 is a graph showing rCRISPA (rCRISP1) protease activity (assay conditions: 5 μM substrate peptide, 1 μg enzyme, 100 mM NaCl, 25 mM Tris-Cl, pH 7.5). A. Cleaved peptides A04 (RGARARLG), N08 (RKRRAPLA), N12 (AKRAASQI), N17 (RKRRAVLT), B22 (APQRFGKK), B17 (RQRYGKRS), B23 (RVKRYRQS), H03 (RNKRAVQG). B. Cleaved peptides B20 (PQRFGRNT), C16 (RVLGLKAH), J21 (LRNRAQSG), H07 (RVKRQVRS), H11 (RRLLRAIP), N05 (RARRELAP), H01 (RKKRSTKK), O22 (GGVRGPRV), O16 (AATRRQAV), O23 (KNVAMQKG), G24 (RRKRSTRE), A09 (RMRRYADA), M02 (EKQRIIGG), H17 (NGLRADPM). C. Uncleaved peptides L16 (KTPRWGG), N10 (FYRADQPR), B11 (AAGVAPLS), J03 (PQLHSTGG), C01 (GPQGLLGA), K11 (VIPRSGGS), M07 (GLQRALEI), A01 (WQGGRRKF), H02 (RAKRSVHF), A10 (SAARPAPP), M16 (RSRREADL), A05 (SYRKVLGQ), M18 (VHRDMAAR), C23 (RDAQAHPG), M09 (GSQHIRAE), E19 (RLGREGVQ), D06 (ALAEAMKK).
Native rCRISPA (rCRISP1) protein, purified with DANA present (see Example 4), was screened for the ability to cleave 360 unique peptides using the commercially available peptide substrate set (catalog # PrSS-360-75, JPT Peptide Technologies, Springfield, Va.). […] The substrate peptides cleaved by rCRISPA in this assay are represented by blue and green traces noted in FIG. 13. Peptides that were not cleaved by rCRISPA are also noted in FIG. 13.

Substance	cleavage of substrate peptide by rCRISPA (rCRISP1) protease activity
RMRRYADA [A09, substrate peptide of the commercial peptide substrate set PrSS-360-75, JPT Peptide Technologies]	Cleaved
ALAEAMKK [D06, substrate peptide of the commercial peptide substrate set PrSS-360-75, JPT Peptide Technologies]	Uncleaved
RVLGLKAH [C16, substrate peptide of the commercial peptide substrate set PrSS-360-75, JPT Peptide Technologies]	Cleaved
APQRFGKK [B22, substrate peptide of the commercial peptide substrate set PrSS-360-75, JPT Peptide Technologies]	Cleaved
RGARARLG [A04, substrate peptide of the commercial peptide substrate set PrSS-360-75, JPT Peptide Technologies]	Cleaved
EKQRIIGG [M02, substrate peptide of the commercial peptide substrate set PrSS-360-75, JPT Peptide Technologies]	Cleaved
GPQGLLGA [C01, substrate peptide of the commercial peptide substrate set PrSS-360-75, JPT Peptide Technologies]	Uncleaved
NGLRADPM [H17, substrate peptide of the commercial peptide substrate set PrSS-360-75, JPT Peptide Technologies]	Cleaved
RRLLRAIP [H11, substrate peptide of the commercial peptide substrate set PrSS-360-75, JPT Peptide Technologies]	Cleaved
AKRAASQI [N12, substrate peptide of the commercial peptide substrate set PrSS-360-75, JPT Peptide Technologies]	Cleaved
GGVRGPRV [O22, substrate peptide of the commercial peptide substrate set PrSS-360-75, JPT Peptide Technologies]	Cleaved
FYRADQPR [N10, substrate peptide of the commercial peptide substrate set PrSS-360-75, JPT Peptide Technologies]	Uncleaved
RKRRAVLT [N17, substrate peptide of the commercial peptide substrate set PrSS-360-75, JPT Peptide Technologies]	Cleaved
RAKRSVHF [H02, substrate peptide of the commercial peptide substrate set PrSS-360-75, JPT Peptide Technologies]	Uncleaved
RSRREADL [M16, substrate peptide of the commercial peptide substrate set PrSS-360-75, JPT Peptide Technologies]	Uncleaved
RRKRSTRE [G24, substrate peptide of the commercial peptide substrate set PrSS-360-75, JPT Peptide Technologies]	Cleaved
RNKRAVQG [H03, substrate peptide of the commercial peptide substrate set PrSS-360-75, JPT Peptide Technologies]	Cleaved

Substance	cleavage of substrate peptide by rCRISPA (rCRISP1) protease activity
LRNRAQSG [J21, substrate peptide of the commercial peptide substrate set PrSS-360-75, JPT Peptide Technologies]	Cleaved
GLQRALEI [M07, substrate peptide of the commercial peptide substrate set PrSS-360-75, JPT Peptide Technologies]	Uncleaved
VIPRSGGS [K11, substrate peptide of the commercial peptide substrate set PrSS-360-75, JPT Peptide Technologies]	Uncleaved
RVKRQVRS [H07, substrate peptide of the commercial peptide substrate set PrSS-360-75, JPT Peptide Technologies]	Cleaved
AATRRQAV [O16, substrate peptide of the commercial peptide substrate set PrSS-360-75, JPT Peptide Technologies]	Cleaved
RLGREGVQ [E19, substrate peptide of the commercial peptide substrate set PrSS-360-75, JPT Peptide Technologies]	Uncleaved
PQRFGRNT [B20, substrate peptide of the commercial peptide substrate set PrSS-360-75, JPT Peptide Technologies]	Cleaved
RKKRSTKK [H01, substrate peptide of the commercial peptide substrate set PrSS-360-75, JPT Peptide Technologies]	Cleaved
SYRKVLGQ [A05, substrate peptide of the commercial peptide substrate set PrSS-360-75, JPT Peptide Technologies]	Uncleaved
KTPRWGG [L16, substrate peptide of the commercial peptide substrate set PrSS-360-75, JPT Peptide Technologies]	Uncleaved
AAGVAPLS [B11, substrate peptide of the commercial peptide substrate set PrSS-360-75, JPT Peptide Technologies]	Uncleaved
PQLHSTGG [J03, substrate peptide of the commercial peptide substrate set PrSS-360-75, JPT Peptide Technologies]	Uncleaved
KNVAMQKG [O23, substrate peptide of the commercial peptide substrate set PrSS-360-75, JPT Peptide Technologies]	Cleaved
SAARPAPP [A10, substrate peptide of the commercial peptide substrate set PrSS-360-75, JPT Peptide Technologies]	Uncleaved
RKRRAPLA [N08, substrate peptide of the commercial peptide substrate set PrSS-360-75, JPT Peptide Technologies]	Cleaved
RARRELAP [N05, substrate peptide of the commercial peptide substrate set PrSS-360-75, JPT Peptide Technologies]	Cleaved

Reference: patent US20060275803A1, “Rat and mouse members of the CRISP family of genes” (Wyeth, priority 2005, published 2006)
